Like-named read-outs stand apart in the source and are kept apart here. Each block holds one molecule with its values, some of them ahead of it.
Tests used:
Sprague–Dawley rats [1] = conditions: rat, in vivo, ip, 6 mg/kg
Description: In this set of experiments, rats were treated with the highly emetogenic chemotherapeutic agent, cisplatin. Using this gold-standard preclinical model of CINV, we first determined the effects of a single systemic dose of GRASP administered shortly before cisplatin.
Adult male Sprague–Dawley rats (Charles River) weighing ∼250–270 g on arrival (N = 158) were housed under a 12 h:12 h light/dark cycle in a temperature- and humidity-controlled vivarium (23 ± 1 °C). Animals were fed ad libitum with a standard chow diet (Purina LabDiet 5001) with ad libitum access to tap water and kaolin pellets (Research Diets, K50001) for at least 5 days before the start of the experiment. All animals were naïve to experimental drugs and test treatments before the beginning of the experiment. Rats were habituated in single-hanging wire cages and received saline IP injections every day for 1 week before the onset of the experiment. […]
Using a similar paradigm, the impact of GRASP on cisplatin-induced nausea and anorexia was assessed. […] Food intake and kaolin consumption were measured at 3, 6, and 24 h postinjection.
Food intake and kaolin consumption were analyzed using repeated measures 2 × 3 ANOVAs, 2 × 2 ANOVAs, or one-way ANOVAs followed by Tukey’s post hoc tests. All data were expressed as means ± SEM. […] All data were analyzed using Prism 9 GraphPad Software (San Diego, California).

[2] = molecular target: purified human GFRAL extracellular domain (ECD); conditions: untagged GDF15, purified human GFRAL ECD, SPR and flow cytometry, ref 6 (Yang et al.), read-out: reported KD of GDF15 for human GFRAL, cited from earlier work
Description: Peptide binding to a segment of recombinant human GFRAL containing the complete known binding domain of GDF15 and the remaining extracellular domain (S19–E351) of the receptor as defined by UniProt (Q6UXV0) was evaluated by SPR (Figure 1). Initial screening aimed to confirm GFRAL immobilization and system functionality by evaluating the dose–response profile to a commercial formulation of HEK293 cell-derived recombinant human GDF15. […] GRASPCy5 binding was evaluated by flow cytometry and compared with results from untransfected HEK293 cells.

[3] = molecular target: T1, recombinant human GFRAL (S19–E351) (Homo sapiens, UniProt Q6UXV0); experiment: SPR, high-capacity carboxyl sensor with immobilised GFRAL, peptide or GDF15 as analyte; conditions: HEK293-derived recombinant human GDF15, TraceDrawer kinetic evaluation, read-out: binding affinity (KD) of GDF15 control to GFRAL
T1 construct: contained a truncated Ser19–Glu351 domain was used for all SPR experiments; His; purchased ACRO Biosystems GFA-H52H3; host or cells: HEK293 cells
T1 sequence (Q6UXV0 19-351): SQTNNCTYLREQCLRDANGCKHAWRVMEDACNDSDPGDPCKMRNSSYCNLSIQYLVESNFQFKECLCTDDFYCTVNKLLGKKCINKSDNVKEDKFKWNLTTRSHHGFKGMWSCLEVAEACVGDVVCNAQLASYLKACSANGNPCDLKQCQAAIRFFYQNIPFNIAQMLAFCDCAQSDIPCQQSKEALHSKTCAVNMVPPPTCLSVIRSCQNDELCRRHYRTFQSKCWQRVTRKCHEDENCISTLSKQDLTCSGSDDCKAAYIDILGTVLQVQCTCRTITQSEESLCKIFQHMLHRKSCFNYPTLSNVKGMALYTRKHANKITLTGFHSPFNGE
Description: Peptide binding to a segment of recombinant human GFRAL containing the complete known binding domain of GDF15 and the remaining extracellular domain (S19–E351) of the receptor as defined by UniProt (Q6UXV0) was evaluated by SPR (Figure 1). Initial screening aimed to confirm GFRAL immobilization and system functionality by evaluating the dose–response profile to a commercial formulation of HEK293 cell-derived recombinant human GDF15. […] For example, Yang et al.[6] reported a KD of ∼1 nM for the interaction between untagged GDF15 and purified human GFRAL extracellular domain (ECD) and binding of GDF15 to HEK293 transfectants expressing human GFRAL-EDC (Ser19–Glu351) and GDF15 via SPR and flow cytometry, respectively.
The binding of each peptide to the ECD of GFRAL was initially confirmed from the results of carboxyl-sensor SPR (SI, Figure S9) with bound GFRAL–ECD. A broad range of binding affinities (KD values ranging from […]) was observed. […] We hypothesized this may be due to obstruction of the binding site of GFRAL–ECD in its immobilized state. Thus, we opted for a different SPR approach in which we conjugated GRASP to biotin and immobilized the peptide to the sensor surface, this time via biotin–streptavidin affinity. Increasing concentrations of GFRAL–ECD were then evaluated as the mobile phase against the immobilized GRASP. […]

[4] = molecular target: T2, Recombinant His-tagged human GFRAL (Ser19–Glu351) (human, UniProt Q6UXV0 19-351); experiment: SPR; GFRAL (S19-E351) immobilised by amine coupling (EDC/NHS) on a high-capacity carboxyl sensor (Nicoya OpenSPR); peptides or GDF15 as analyte; HBSS pH 7.4 running buffer without BSA; 20 uL/min; conditions: both partners purified
T2 construct: GDNF family receptor alpha-like (GFRAL), human, extracellular domain S19-E351 as defined by UniProt Q6UXV0; also called GFRAL–ECD; GFRAL (S19–E351); source: bought: ACRO Biosystems (GFA-H52H3), expressed in HEK293 cells
T2 sequence (looked up): T1 sequence (Q6UXV0 19-351)

Sprague–Dawley rats [5] = experiment: GDF15-induced anorexia and pica (kaolin intake) in rats; format: in vivo, rat
Source text: In initial experiments, we examined whether central administration of GRASP (i.e., directly into the fourth ventricle or fourth ICV) would counteract the effects of centrally delivered GDF15 in rats. Because the AP/NTS is located on the dorsal surface of the hindbrain at the caudal end of the fourth ventricle, this route of administration facilitates targeted and selective drug delivery near the sites of GFRAL expression. To assess the impact of these interventions, we measured pica behavior, i.e., the ingestion of non-nutritive substances such as kaolin,[29] as this represents an accurate and reliable proxy for malaise in rats and has been used to examine the effects of agents known to cause nausea in humans.[29]−[31]
To increase the translational impact of this study and more closely mimic a potential clinical scenario, we conducted a dose–response study in which both GRASP and GDF15 were administered systemically to rats via the intraperitoneal (IP) route.
All systemic treatments were delivered by intraperitoneal (IP) injection.
To evaluate the impact of GRASP on GDF15-induced anorexia and nausea (proxied by kaolin ingestion) in rats (n = 10, 400–450 g), GRASP (300 and 3000 pmol), or vehicle control was administered centrally immediately before intraventricular infusion of GDF15 (30 pmol). […]
All data were expressed as means ± SEM.

Molecule: cis-diammineplatinum dichloride [cisplatin]
kaolin consumption and anorexia induced by cisplatin (Sprague–Dawley rats [1]): leads to significant kaolin consumption and anorexia

Kd [3]: 6 nM | Kd [4]: 6.02 nM
B1: Recombinant human growth differentiation factor 15 (GDF15) (ligand, UniProt Q99988 195-308, looked up)
chain: ARARNGDHCPLGPGRCCRLHTVRASLEDLGWADWVLSPREVQVTMCIGACPSQFRAANMHAQIKTSLHRLKPDTVPAPCCVPASYNPMVLIQKTDTGVSLQTYDDLLAKDCHCI
notes: Growth differentiation factor 15, human, HEK293-derived commercial recombinant protein; commercial GDF15 is commonly the mature C-terminal cytokine (a disulfide-linked dimer), so the limits should be checked with the supplier; source: bought: Abcam (ab302451), expressed in HEK293 cells
Kd ([2]; listed as native ligand): 1 nM | Kd [2]: ~1 nM | kaolin consumption and anorexia induced by GDF15, central (Sprague–Dawley rats [5]; GDF15 30 pmol central administration, vs vehicle): induced significant kaolin consumption and anorexia | kaolin consumption and anorexia induced by GDF15, systemic (Sprague–Dawley rats [5]; GDF15 20 μg/kg IP): reliably induced kaolin consumption and modest, albeit statistically significant anorexia

From PMC10461225, “Creation of a Peptide Antagonist of the GFRAL–RET Receptor Complex for the Treatment of GDF15-Induced Malaise” (Journal of Medicinal Chemistry, 2023)
